This note sets out measurements from PMC6597010 (Cell, 2019).

The data set deals with the molecule itself. Kind of data set: cryo-EM structure.

B1: C-terminal Strep-tag HsMCU (human mitochondrial calcium uniporter) (natural protein)
chain: VHQRIASWQNLGAVYCSTVVPSDDVTVVYQNGLPVISVRLPSRRERCQFTLKPISDSVGVFLRQLQEEDRGIDRVAIYSPDGVRVAASTGIDLLLLDDFKLVINDLTYHVRPPKRDLLSHENAATLNDVKTLVQQLYTTLCIEQHQLNKERELIERLEDLKEQLAPLEKVRIEISRKAEKRTTLVLWGGLAYMATQFGILARLTWWEYSWDIMEPVTYFITYGSAMAMYAYFVMTRQEYVYPEARDRQYLLFFHKGAKKSRFDLEKYNQLKDAIAQAEMDLKRLRDPLQVHLPLRQIGEKD
A word on the stoichiometry N: it is a count of units in the complex or per binding partner. For B1, the “stoichiometry N” value came out at 4.

B2: human MCU/EMRE complex (one channel: MCU tetramer with four EMRE subunits) (complex)
chain 1: VHQRIASWQNLGAVYCSTVVPSDDVTVVYQNGLPVISVRLPSRRERCQFTLKPISDSVGVFLRQLQEEDRGIDRVAIYSPDGVRVAASTGIDLLLLDDFKLVINDLTYHVRPPKRDLLSHENAATLNDVKTLVQQLYTTLCIEQHQLNKERELIERLEDLKEQLAPLEKVRIEISRKAEKRTTLVLWGGLAYMATQFGILARLTWWEYSWDIMEPVTYFITYGSAMAMYAYFVMTRQEYVYPEARDRQYLLFFHKGAKKSRFDLEKYNQLKDAIAQAEMDLKRLRDPLQVHLPLRQIGEKD
chain 2: VSAAWSGSGRSLVPSRSVIVTRSGAILPKPVKMSFGLLRVFSIVIPFLYVGTLISKNFAALLEEHDIFVPEDDDDDD
As for B2, the “stoichiometry N” value was determined as 2.
